Data on three molecules can be found in PMC9959916, “A Highly Conserved Region in BRCA2 Suppresses the RAD51-Interaction Activity of BRC Repeats” (Veterinary Sciences, 2023).

First the molecules themselves.
B2: endogenous RAD51 (HeLa cells) (natural protein, human (endogenous in HeLa), UniProt Q06609 1-339, looked up)
chain: MAMQMQLEANADTSVEEESFGPQPISRLEQCGINANDVKKLEEAGFHTVEAVAYAPKKELINIKGISEAKADKILAEAAKLVPMGFTTATEFHQRRSEIIQITTGSKELDKLLQGGIETGSITEMFGEFRTGKTQICHTLAVTCQLPIDRGGGEGKAMYIDTEGTFRPERLLAVAERYGLSGSDVLDNVAYARAFNTDHQTQLLYQASAMMVESRYALLIVDSATALYRTDYSGRGELSARQMHLARFLRMLLRLADEFGVAVVITNQVVAQVDGAAMFAADPKKPIGGNIIAHASTTRLYLRKGRGETRICKIYDSPCLPEAEAMFAINADGVGDAKD
notes: RAD51 recombinase, endogenous in HeLa cells; source: endogenous, HeLa lysate

Details in all cases: partners not purified
Test [1] has as its target T1, Gal4 DNA-binding domain-fused cBRC1-HCR-BRC2 A1108G (canine (Canis lupus familiaris), UniProt Q8MKI9 993-1248, A1108G).
T1 construct: canine BRCA2, residues 993-1248 with A1108G, a mutation reported in a canine mammary tumor; source: HeLa, transiently transfected, mammalian two-hybrid fusion
T1 sequence (looked up): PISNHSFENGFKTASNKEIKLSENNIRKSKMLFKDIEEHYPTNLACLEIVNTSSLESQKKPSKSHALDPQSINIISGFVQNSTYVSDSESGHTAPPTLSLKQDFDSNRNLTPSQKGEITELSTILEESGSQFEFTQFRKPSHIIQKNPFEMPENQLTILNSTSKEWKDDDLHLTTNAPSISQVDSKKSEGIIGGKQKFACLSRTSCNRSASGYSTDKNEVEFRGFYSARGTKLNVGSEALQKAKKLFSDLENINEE
Description: two-hybrid; mammalian two-hybrid in HeLa cells: pM (Gal4 DNA-binding domain)-BRCA2 peptide, pVP16-canine RAD51, pG5-Luc firefly luciferase reporter, normalised to Renilla (pRL-TK); read two days after transfection. (In a reporter assay the amount or activity of a reporter protein is the signal.)

For test [2], the target named is T2, FLAG-HA-NLS-fused cBRC1-HCR-BRC2 A1108G (canine (Canis lupus familiaris), UniProt Q8MKI9 993-1248, A1108G).
T2 construct: canine BRCA2, residues 993-1248 with A1108G, a mutation reported in a canine mammary tumor; Very low expression; also called A1108G mutant; source: HeLa, stably expressing, in lysate
T2 sequence (looked up): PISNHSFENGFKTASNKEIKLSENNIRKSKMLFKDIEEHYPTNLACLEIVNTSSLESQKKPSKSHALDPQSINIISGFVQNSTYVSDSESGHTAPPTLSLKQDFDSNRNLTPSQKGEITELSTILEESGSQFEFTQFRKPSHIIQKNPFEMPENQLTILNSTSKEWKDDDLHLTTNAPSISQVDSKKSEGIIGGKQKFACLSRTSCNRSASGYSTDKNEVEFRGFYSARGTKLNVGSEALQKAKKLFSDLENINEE
Description: co-IP; lysates of HeLa cells stably expressing FLAG-HA-NLS-fused canine BRCA2 peptides, Benzonase-treated; FLAG M2 affinity agarose at 4 °C overnight; washed with 20 mM Tris-HCl pH 8.0, 150 mM KCl, 2 mM MgCl2, 10% glycerol; blots for endogenous RAD51 and PP2A-C subunit.

Test [3] has as its target B2. Description: co-IP; lysates of HeLa cells stably expressing FLAG-HA-NLS-fused canine BRCA2 peptides; 3 μg anti-RAD51 at 4 °C overnight, Protein G Dynabeads; peptides detected with anti-FLAG.

B1: VP16-fused canine RAD51 (natural protein, UniProt Q8MKI8 1-339, looked up)
chain: MAMQMQLEANADTSVEEESFGPQPISRLEQCGINANDVKKLEEAGFHTVEAVAYAPKKELISIKGISEAKADKILTEAAKLVPMGFTTATEFHQRRSEIIQITTGSKELDKLLQGGIETGSITEMFGEFRTGKTQICHTLAVTCQLPIDRGGGEGKAMYIDTEGTFRPERLLAVAERYGLSGSDVLDNVAYARGFNTDHQTQLLYQASAMMVESRYALLIVDSATALYRTDYSGRGELSARQMHLARFLRMLLRLADEFGVAVVITNQVVAQVDGAAMFAADPKKPIGGNIIAHASTTRLYLRKGRGETRICKIYDSPCLPEAEAMFAINADGVGDAKD
notes: canine RAD51, cloned into the pVP16 vector; also called pVP16-RAD51; source: HeLa, transiently transfected, mammalian two-hybrid fusion
B1: in test [1], the “fold change against the wild-type peptide” value came to 1.5 fold.

Turning to B2, the “fold change against the wild-type peptide” value in test [2] is 48 fold.

B3: FLAG-HA-NLS-fused cBRC1-ΔHCR-BRC2 (canine BRCA2 993–1248 aa deleted with 1101–1133 aa) (domain or fragment, canine (Canis lupus familiaris), UniProt Q8MKI9 993-1248, looked up)
chain: PISNHSFENGFKTASNKEIKLSENNIRKSKMLFKDIEEHYPTNLACLEIVNTSSLESQKKPSKSHALDPQSINIISGFVQNSTYVSDSESGHTAPPTLSLKQDFDSNRHIIQKNPFEMPENQLTILNSTSKEWKDDDLHLTTNAPSISQVDSKKSEGIIGGKQKFACLSRTSCNRSASGYSTDKNEVEFRGFYSARGTKLNVGSEALQKAKKLFSDLENINEE
notes: canine BRCA2, residues 993-1248 with the HCR (1101-1133) deleted; also called HCR-deleted peptide; source: HeLa, stably expressing, in lysate
B3: the “fold change against cBRC1-HCR-BRC2” value in test [3] is approximately 1.5 fold.
